Publication PMC6776665, “A tri-ionic anchor mechanism drives Ube2N-specific recruitment and K63-chain ubiquitination in TRIM ligases” (Nature Communications, 2019)

Assays:
ubiquitin (WT) = target: T1, ubiquitin (WT) (UniProt P0CG48 1-76); test: crystal structure; T21-R with Ube2N^C87K/K92A~Ub, 2.8 Å, space group P1, two complexes in the asymmetric unit (2xT21-R, 2xUbe2N~Ub); settings: both partners purified
T1 construct: WT ubiquitin, the cut product of the ubiquitin precursor (G76 printed as the residue linked to Ube2N); In the rows of the crystal structure it is the ubiquitin moiety of the conjugate m8, linked by G76 to Ube2N K87; source: E. coli Rosetta 2 DE3, purified (perchloric acid precipitation, cation exchange, SEC)

[1] = target: the molecule itself; test: as above

B1: TRIM21-RING (residue 1-85) (domain or fragment)
chain: GSHMASAARLTMMWEEVTCPICLDPFVEPVSIECGHSFCQECISQVGKGGGSVCPVCRQRFLLKNLRPNRQLANMVNNLKEISQEARE
notes: tripeptide scar left at the N-terminus after cleavage of the GST tag; TRIM21 RING domain (T21-R), residues 1-85; Wild-type RING; a RING dimer in the crystal (2xT21-R and 2xUbe2N~Ub in the asymmetric unit); also called T21-R; TRIM21 RING domain; source: E. coli C41 DE3 or BL21 DE3, purified (glutathione sepharose, tag cleaved on beads, SEC); not shown: GST, N-terminal, cleaved
Ubiquitin (WT)
  binding result: binds
[1]
  binding result: binds
